In the supplement of paper PMC5998384:

What was measured:
HeLa Kyoto [1] = experiment: thermal stability score vs G1/S (z-score of summed log2 fold changes over temperatures); higher = more thermally stable than in G1/S
HeLa Kyoto [2] = experiment: solubility change mitosis vs G1/S (difference of NP-40 vs SDS log2 ratios) (log2 ratio difference); higher = more soluble in mitosis
HeLa Kyoto [3] = experiment: solubility in G1/S (NP-40 vs SDS abundance) (log2 ratio); higher = more soluble; conditions: cell cycle stage: G1/S
HeLa Kyoto [4] = experiment: melting temperature (median over replicates), in situ; higher = more thermally stable
[5] = cell cycle stage: early G1 (4.5 h after nocodazole release)
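Wherever melting temperature (median over replicates), in situ is given: HeLa Kyoto cells synchronized by double thymidine or nocodazole block, proteins quantified by TMT10plex mass spectrometry, three independent biological replicates.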
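Wherever solubility change mitosis vs G1/S (difference of NP-40 vs SDS log2 ratios) is given: synchronized HeLa Kyoto cells (double thymidine block for G1/S, nocodazole release for mitosis), protein amounts in NP-40 versus SDS lysates quantified by mass spectrometry, three biological replicates.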
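Wherever solubility in G1/S (NP-40 vs SDS abundance) is given: HeLa Kyoto cells arrested at G1/S by double thymidine block, proteins quantified by TMT10plex mass spectrometry in mild NP-40 versus SDS extracts, three biological replicates.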
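Wherever thermal stability score vs G1/S (z-score of summed log2 fold changes over temperatures) is given: synchronized HeLa Kyoto cells, proteins quantified by TMT10plex mass spectrometry, three biological replicates, mitosis taken 0.5 h after nocodazole release, G1/S directly after double thymidine block.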

Chain of NUDC (chain, as listed by the source): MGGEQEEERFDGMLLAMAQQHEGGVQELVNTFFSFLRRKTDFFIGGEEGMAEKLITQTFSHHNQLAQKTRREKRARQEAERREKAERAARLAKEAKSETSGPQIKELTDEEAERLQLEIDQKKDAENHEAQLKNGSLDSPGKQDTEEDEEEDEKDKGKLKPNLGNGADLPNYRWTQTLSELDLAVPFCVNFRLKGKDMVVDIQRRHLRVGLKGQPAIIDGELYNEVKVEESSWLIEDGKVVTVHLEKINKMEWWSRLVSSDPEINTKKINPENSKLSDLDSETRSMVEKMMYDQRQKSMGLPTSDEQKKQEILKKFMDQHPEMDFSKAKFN

Substance | thermal stability score (HeLa Kyoto [1]; [5]) | thermal stability score (HeLa Kyoto [1]; cell cycle stage: mitosis) | solubility change mitosis (log2) (HeLa Kyoto [2]) | solubility in G1/S (log2) (HeLa Kyoto [3]) | melting temperature (HeLa Kyoto [4]; cell cycle stage: G1/S) [°C] | melting temperature (HeLa Kyoto [4]; cell cycle stage: mitosis) [°C]
MLWSGCRRFGARLGCLPGGLRVLVQTGHRSLTSCIDPSMGLNEEQKEFQKVAFDFAAREMAPNMAEWDQKELFPVDVMRKAAQLGFGGVYIQTDVGGSGLSRLDTSVIFEALATGCTSTTAYISIHNMCAWMIDSFGNEEQRHKFCPPLCTMEKFASYCLTEPGSGSDAASLLTSAKKQGDHYILNGSKAFISGAGESDIYVVMCRTGGPGPKGISCIVVEKGTPGLSFGKKEKKVGWNSQPTRAVIFEDCAVPVANRIGSEGQGFLIAVRGLNGGRINIASCSLGAAHASVILTRDHLNVRKQFGEPLASNQYLQFTLADMATRLVAARLMVRNAAVALQEERKDAVALCSMAKLFATDECFAICNQALQMHGGYGYLKDYAVQQYVRDSRVHQILEGSNEVMRILISRSLLQE [ACAD8] | -0.89 | -3.82 | -0.0672 | -0.0509 | 54.9 | 55.2
NUDC | 0.837 | -0.681 | -0.106 | 0.405 | 51.9 | 52.4
MSFRKVVRQSKFRHVFGQPVKNDQCYEDIRVSRVTWDSTFCAVNPKFLAVIVEASGGGAFLVLPLSKTGRIDKAYPTVCGHTGPVLDIDWCPHNDEVIASGSEDCTVMVWQIPENGLTSPLTEPVVVLEGHTKRVGIIAWHPTARNVLLSAGCDNVVLIWNVGTAEELYRLDSLHPDLIYNVSWNHNGSLFCSACKDKSVRIIDPRRGTLVAEREKAHEGARPMRAIFLADGKVFTTGFSRMSERQLALWDPENLEEPMALQELDSSNGALLPFYDPDTSVVYVCGKGDSSIRYFEITEEPPYIHFLNTFTSKEPQRGMGSMPKRGLEVSKCEIARFYKLHERKCEPIVMTVPRKSDLFQDDLYPDTAGPEAALEAEEWVSGRDADPILISLREAYVPSKQRDLKISRRNVLSDSRPAMAPGSSHLGAPASTTTAADATPSGSLARAGEAGKLEEVMQELRALRALVKEQGDRICRLEEQLGRMENGDA [CORO1B] | -0.395 | -0.683 | -0.0904 | -0.0585 | 51.1 | 50.6
MASRGATRPNGPNTGNKICQFKLVLLGESAVGKSSLVLRFVKGQFHEFQESTIGAAFLTQTVCLDDTTVKFEIWDTAGQERYHSLAPMYYRGAQAAIVVYDITNEESFARAKNWVKELQRQASPNIVIALSGNKADLANKRAVDFQEAQSYADDNSLLFMETSAKTSMNVNEIFMAIAKKLPKNEPQNPGANSARGRGVDLTEPTQPTRNQCCSN [RAB5A] | -1.4 | -3.38 | 0.0351 | 0.00572 | 57.3 | 56.4
MEVMNLMEQPIKVTEWQQTYTYDSGIHSGANTCVPSVSSKGIMEEDEACGRQYTLKKTTTYTQGVPPSQGDLEYQMSTTARAKRVREAMCPGVSGEDSSLLLATQVEGQATNLQRLAEPSQLLKSAIVHLINYQDDAELATRALPELTKLLNDEDPVVVTKAAMIVNQLSKKEASRRALMGSPQLVAAVVRTMQNTSDLDTARCTTSILHNLSHHREGLLAIFKSGGIPALVRMLSSPVESVLFYAITTLHNLLLYQEGAKMAVRLADGLQKMVPLLNKNNPKFLAITTDCLQLLAYGNQESKLIILANGGPQALVQIMRNYSYEKLLWTTSRVLKVLSVCPSNKPAIVEAGGMQALGKHLTSNSPRLVQNCLWTLRNLSDVATKQEGLESVLKILVNQLSVDDVNVLTCATGTLSNLTCNNSKNKTLVTQNSGVEALIHAILRAGDKDDITEPAVCALRHLTSRHPEAEMAQNSVRLNYGIPAIVKLLNQPNQWPLVKATIGLIRNLALCPANHAPLQEAAVIPRLVQLLVKAHQDAQRHVAAGTQQPYTDGVRMEEIVEGCTGALHILARDPMNRMEIFRLNTIPLFVQLLYSSVENIQRVAAGVLCELAQDKEAADAIDAEGASAPLMELLHSRNEGTATYAAAVLFRISEDKNPDYRKRVSVELTNSLFKHDPAAWEAAQSMIPINEPYGDDMDATYRPMYSSDVPLDPLEMHMDMDGDYPIDTYSDGLRPPYPTADHMLA [JUP] | -2.2 | -2.86 | -0.103 | -0.169 | 53.5 | 52.8
MAMNYNAKDEVDGGPPCAPGGTAKTRRPDNTAFKQQRLPAWQPILTAGTVLPIFFIIGLIFIPIGIGIFVTSNNIREIEIDYTGTEPSSPCNKCLSPDVTPCFCTINFTLEKSFEGNVFMYYGLSNFYQNHRRYVKSRDDSQLNGDSSALLNPSKECEPYRRNEDKPIAPCGAIANSMFNDTLELFLIGNDSYPIPIALKKKGIAWWTDKNVKFRNPPGGDNLEERFKGTTKPVNWLKPVYMLDSDPDNNGFINEDFIVWMRTAALPTFRKLYRLIERKSDLHPTLPAGRYSLNVTYNYPVHYFDGRKRMILSTISWMGGKNPFLGIAYIAVGSISFLLGVVLLVINHKYRNSSNTADITI [TMEM30A] | -0.78 | 0.594 | -0.17 | 0.428 | 54.2 | 54.6
